# Results from patent US20120316071A1 (published 2012).
# Positions count from the first letter of the chain named. Names may count otherwise.
# B1: Fab VH1-46_IGHD6-6*01_IGHJ1*01 S102A/S103P/S104F/H111F & L6_IGKJ1*01 (Fab, V domains shown)
# VH: QVQLVQSGAEVKKPGASVKVSCKASGYTFTSYYMHWVRQAPGQGLEWMGIINPSGGSTSYAQKFQGRVTMTRDTSTSTVYMELSSLRSEDTAVYYCAREEYAPFSAEYFQFWGQGTLVTVSS
# VL: not shown
# notes: Tested as a Fab made in E. coli; also called H:APFF & L:wt; APFF
# B2: Fab VH1-46_IGHD6-6*01_IGHJ1*01 S102A/S103P/S104F/H111F & L6_IGKJ1*01 S28N/S30D/S31H (Fab, V domains shown)
# VH: B1 VH
# VL: EIVLTQSPATLSLSPGERATLSCRASQNVDHYLAWYQQKPGQAPRLLIYDASNRATGIPARFSGSGSGTDFTLTISSLEPEDFAVYYCQQRSNWPPWTFGQGTKVEIKR
# notes: Tested as a Fab; also called H:APFF & L:NDH; APFF-NDH
# B3: Fab VH1-46_IGHD6-6*01_IGHJ1*01 S102A/S103P/S104F/H111F/S54A & L6_IGKJ1*01 S28N/S30D/S31H (Fab, V domains shown)
# VH: B1 VH with S54A
# VL: B2 VL
# notes: Tested as a Fab; also called H:APFF S54A & L:NDH
# B4: Fab VH1-46_IGHD6-6*01_IGHJ1*01 S102A/S103P/S104F/H111F/G56A & L6_IGKJ1*01 S28N/S30D/S31H (Fab, V domains shown)
# VH: B1 VH with G56A
# VL: B2 VL
# notes: Tested as a Fab; also called H:APFF G56A & L:NDH
# B5: Fab VH1-46_IGHD6-6*01_IGHJ1*01 S102A/S103P/S104F/H111F/G56A & L6_IGKJ1*01 (Fab, V domains shown)
# VH: B1 VH with G56A
# VL: not shown
# notes: Tested as a Fab; also called APFF G56A & Parent
# B6: Fab VH1-46_IGHD6-6*01_IGHJ1*01 S102A/S103P/S104F/H111F & L6_IGKJ1*01 S30D (Fab, V domains shown)
# VH: B1 VH
# VL: B2 VL with N28S, H31S
# notes: Tested as a Fab; also called APFF & S30D
# B7: Fab VH1-46_IGHD6-6*01_IGHJ1*01 S102A/S103P/S104F/H111F & L6_IGKJ1*01 S31H (Fab, V domains shown)
# VH: B1 VH
# VL: B2 VL with N28S, D30S
# notes: Tested as a Fab; also called APFF & S31H
# B8: Fab VH5-51_IGHD5-18*01>3_IGHJ4*01 G100K/G104T F29A & V3-4_IGLJ1*01 (Fab, V domains shown)
# VH: EVQLVQSGAEVKKPGESLKISCKGSGYSATSYWIGWVRQMPGKGLEWMGIIYPGDSDTRYSPSFQGQVTISADKSISTAYLQWSSLKASDTAMYYCARRKYSYTYDYFDYWGQGTLVTVSS
# VL: QTVVTQEPSFSVSPGGTVTLTCGLSSGSVSTSYYPSWYQQTPGQAPRTLIYSTNTRSSGVPDRFSGSILGNKAALTITGAQADDESDYYCVLYMGSGISYVFGTGTKVTVL
# notes: Fab expressed in E. coli with CH1 (plasmid A, His6 and Flag tags) and lambda CL (plasmid E); also called KT F29A
# B9: Fab VH5-51_IGHD5-18*01>3_IGHJ4*01 G100K/G104T T30A & V3-4_IGLJ1*01 (Fab, V domains shown)
# VH: B8 VH with A29F, T30A
# VL: B8 VL
# notes: Fab expressed in E. coli with CH1 (plasmid A, His6 and Flag tags) and lambda CL (plasmid E); also called KT T30A
# B10: Fab VH5-51_IGHD5-18*01>3_IGHJ4*01 G100K/G104T G35A & V3-4_IGLJ1*01 (Fab, V domains shown)
# VH: B8 VH with A29F, G35A
# VL: B8 VL
# notes: Fab expressed in E. coli with CH1 (plasmid A, His6 and Flag tags) and lambda CL (plasmid E); also called KT G35A
# B11: Fab VH5-51_IGHD5-18*01>3_IGHJ4*01 G100K/G104T S28A & V3-4_IGLJ1*01 (Fab, V domains shown)
# VH: B8 VH with S28A, A29F
# VL: B8 VL
# notes: Fab expressed in E. coli with CH1 (plasmid A, His6 and Flag tags) and lambda CL (plasmid E); also called KT S28A
# B12: Fab VH5-51_IGHD5-18*01>3_IGHJ4*01 G100K/G104T G24A & V3-4_IGLJ1*01 (Fab, V domains shown)
# VH: B8 VH with G24A, A29F
# VL: B8 VL
# notes: Fab expressed in E. coli with CH1 (plasmid A, His6 and Flag tags) and lambda CL (plasmid E); also called KT G24A
# Molecular target: T1, Recombinant Human DLL4 (delta-like protein 4) (human, UniProt Q9NR61 27-524)
# T1 construct: Bought recombinant human DLL4 (R&D Systems Cat#1506-D4/CF); also called rHuman DLL4; Delta-like 4
# Experiment: ELISA, DLL4 coated on plate, Fab at 100 nM
row,ELISA signal,Binder
1,0.072,B1
2,0.259,B2
3,0.213,B3
4,0.453,B4
5,0.338,B5

# Molecular target: T1, Recombinant Human DLL4 (delta-like …)
# Experiment: ELISA, DLL4 coated on plate, Fab at 100 nM
# Remark: another data set of the same source
row,ELISA signal,Binder
1,0.07,B1
2,0.09,B6
3,0.09,B7

# Molecular target: T1, Recombinant Human DLL4 (delta-like …)
# Experiment: ELISA, DLL4 coated on plate, Fab at 25 nM (first 25 nM row)
row,ELISA signal,Binder
1,0.02,B1
2,0.03,B6
3,0.03,B7

# Molecular target: T2, Recombinant Human DLL4 (human, UniProt Q9NR61 27-524)
# T2 construct: Bought recombinant human DLL4 (R&D Systems Cat#1506-D4/CF); That entry includes the signal peptide (amino acids 1-25), the transmembrane region and the cytoplasmic domain; also called delta-like protein 4; Delta-like ligand 4
# Experiment: ECL (MSD) multispot binding assay, DLL4 spotted on plate, purified Fab in solution; signal over blank
# Description: An 150 μl aliquot of 1% Bovine Serum Albumin (BSA) in Tris-buffered Saline Tween (TBST) was added to each well and allowed to incubate for 30 min at 20° C. followed by washing and tap drying to completely remove any residual solution. Subsequently, a 12.5 μl aliquot of 1% BSA TBST was added to each well followed by the addition of a 12.5 μl aliquot of a purified Fab. The plate was sealed and incubated for 1 hour at 20° C. with shaking
# TAG-detection antibody at 25 μl was added to each well and allowed to incubate for 1 hour at 20° C. with shaking. Finally, 15 μl of Read Buffer P with Surfactant (Cat # R92PC-1, Meso Scale Discovery) was added to each well. The electrochemiluminescence was measured using a Sector Imager 2400 (Meso Scale Discovery). Data was analyzed by comparing the ECL signals for an antigen to the blank of each well. A signal to blank ratio of 4 or more was considered a “Hit” Fab.
# Purified Fab alanine mutants were tested for binding to DLL4 using the ECL multispot binding assay.
row,ECL Signal/Blank,Binder
1,67.9,B8
2,69.4,B9
3,180,B10
4,112,B11
5,122,B12

# Molecular target: T1, Recombinant Human DLL4 (delta-like …)
# Experiment: ELISA, DLL4 coated on plate, Fab at 0 nM (no-Fab background, second 0 row)
row,ELISA signal,Binder
1,0,B1
2,0.01,B6
3,0,B7

# Molecular target: T1, Recombinant Human DLL4 (delta-like …)
# Experiment: ELISA, DLL4 coated on plate, Fab at 50 nM
row,ELISA signal,Binder
1,0.06,B1
2,0.202,B2
3,0.154,B3
4,0.366,B4
5,0.301,B5

# Molecular target: T2, Recombinant Human DLL4
# Experiment: ELISA, DLL4 coated on plate, Fab in solution, absorbance at 450 nm; signal minus noise
row,ELISA (Signal-Noise),Binder
1,0.02,B8
2,0,B9
3,0.02,B10
4,0.01,B11
5,0.02,B12

# Molecular target: T1, Recombinant Human DLL4 (delta-like …)
# Experiment: ELISA, DLL4 coated on plate, Fab at 25 nM (second 25 nM row)
row,ELISA signal,Binder
1,0.03,B1
2,0.03,B6
3,0.03,B7

# Molecular target: T1, Recombinant Human DLL4 (delta-like …)
# Experiment: ELISA, DLL4 coated on plate, Fab at 75 nM
row,ELISA signal,Binder
1,0.072,B1
2,0.268,B2
3,0.212,B3
4,0.543,B4
5,0.399,B5

# Molecular target: T1, Recombinant Human DLL4 (delta-like …)
# Experiment: ELISA, DLL4 coated on plate, Fab at 400 nM
row,ELISA signal,Binder
1,0.13,B1
2,0.13,B6
3,0.2,B7

# Molecular target: T1, Recombinant Human DLL4 (delta-like …)
# Experiment: ELISA, DLL4 coated on plate, Fab at 200 nM
row,ELISA signal,Binder
1,0.1,B1
2,0.11,B6
3,0.11,B7

# Molecular target: T1, Recombinant Human DLL4 (delta-like …)
# Experiment: ELISA, DLL4 coated on plate, Fab at 0 nM (no-Fab background)
row,ELISA signal,Binder
1,0.006,B1
2,0.002,B2
3,0,B3
4,0.002,B4
5,0.002,B5

# Molecular target: T1, Recombinant Human DLL4 (delta-like …)
# Experiment: ELISA, DLL4 coated on plate, Fab at 0 nM (no-Fab background, first 0 row)
row,ELISA signal,Binder
1,0,B1
2,0,B6
3,0,B7

# Molecular target: T1, Recombinant Human DLL4 (delta-like …)
# Experiment: ELISA, DLL4 coated on plate, Fab at 50 nM
# Remark: another data set of the same source
row,ELISA signal,Binder
1,0.06,B1
2,0.06,B6
3,0.05,B7
